Data from publication doi:10.64898/2025.12.23.696179 (bioRxiv, 2025).

Biological target: biotinylated TGPAvi (Galaxea fascicularis (engineered …, biotin on the Avi-tag (enzymatic biotinylation with BirA)))
Assay: BLI

B1: Sb32 (VHH)
VHH: QVQLVESGGGLVQAGGSLRLSCAASGFPVGQQKMTWYRQAPGKEREWVAAITSAGWFTHYADSVKGRFTISRDNAKNTVYLQMNSLKPEDTAVYYCTVKVGAEYAGQGTQVTVSA
- Kd: 26 nM
- koff: 0.014 s⁻¹
- kon: 530000 M⁻¹ s⁻¹
